Laboratory results as given in EP4563596A1 (OncoSpear ApS, dated 2025).
Like-named read-outs stand apart in the source and are kept apart here.

Key:
[1] = biological target: CD16 V158 (FcγRIIIA) on Jurkat reporter cells (human, UniProt P08637 17-254); experiment: cell-based or functional assay
[2] = biological target: CD16 F158 (FcγRIIIA) on Jurkat reporter cells (human, UniProt P08637 17-254); experiment: cell-based or functional assay
[3] = biological target: T1, human CD163 domain 1-9, recombinant, immobilized on a CM5 sensor chip (human, UniProt Q86VB7 42-1050, limits assumed); experiment: SPR (Biacore T200), human CD163 domain 1-9 immobilised on CM5 chip, antibody injected, 1:1 kinetic fit
T1 construct: the whole entry is named; also called immobilized CD163

[4] = biological target: T1, human CD163 domain 1-9, recombinant, …; experiment: as above; remark: listed apart in the source

CD16 V158 (FcγRIIIA) on Jurkat reporter cells, sequence (P08637 17-254 F176V): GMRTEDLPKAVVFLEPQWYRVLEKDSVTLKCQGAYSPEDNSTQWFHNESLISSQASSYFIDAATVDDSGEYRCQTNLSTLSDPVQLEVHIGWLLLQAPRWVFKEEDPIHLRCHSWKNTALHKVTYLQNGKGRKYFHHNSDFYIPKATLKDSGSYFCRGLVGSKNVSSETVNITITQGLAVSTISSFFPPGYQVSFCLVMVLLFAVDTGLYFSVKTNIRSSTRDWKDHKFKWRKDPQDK
CD16 F158 (FcγRIIIA) on Jurkat reporter cells, sequence (P08637 17-254): as the sequence (P08637 17-254 F176V) above, with V160F counted along it
T1 sequence (Q86VB7 42-1050 limits assumed): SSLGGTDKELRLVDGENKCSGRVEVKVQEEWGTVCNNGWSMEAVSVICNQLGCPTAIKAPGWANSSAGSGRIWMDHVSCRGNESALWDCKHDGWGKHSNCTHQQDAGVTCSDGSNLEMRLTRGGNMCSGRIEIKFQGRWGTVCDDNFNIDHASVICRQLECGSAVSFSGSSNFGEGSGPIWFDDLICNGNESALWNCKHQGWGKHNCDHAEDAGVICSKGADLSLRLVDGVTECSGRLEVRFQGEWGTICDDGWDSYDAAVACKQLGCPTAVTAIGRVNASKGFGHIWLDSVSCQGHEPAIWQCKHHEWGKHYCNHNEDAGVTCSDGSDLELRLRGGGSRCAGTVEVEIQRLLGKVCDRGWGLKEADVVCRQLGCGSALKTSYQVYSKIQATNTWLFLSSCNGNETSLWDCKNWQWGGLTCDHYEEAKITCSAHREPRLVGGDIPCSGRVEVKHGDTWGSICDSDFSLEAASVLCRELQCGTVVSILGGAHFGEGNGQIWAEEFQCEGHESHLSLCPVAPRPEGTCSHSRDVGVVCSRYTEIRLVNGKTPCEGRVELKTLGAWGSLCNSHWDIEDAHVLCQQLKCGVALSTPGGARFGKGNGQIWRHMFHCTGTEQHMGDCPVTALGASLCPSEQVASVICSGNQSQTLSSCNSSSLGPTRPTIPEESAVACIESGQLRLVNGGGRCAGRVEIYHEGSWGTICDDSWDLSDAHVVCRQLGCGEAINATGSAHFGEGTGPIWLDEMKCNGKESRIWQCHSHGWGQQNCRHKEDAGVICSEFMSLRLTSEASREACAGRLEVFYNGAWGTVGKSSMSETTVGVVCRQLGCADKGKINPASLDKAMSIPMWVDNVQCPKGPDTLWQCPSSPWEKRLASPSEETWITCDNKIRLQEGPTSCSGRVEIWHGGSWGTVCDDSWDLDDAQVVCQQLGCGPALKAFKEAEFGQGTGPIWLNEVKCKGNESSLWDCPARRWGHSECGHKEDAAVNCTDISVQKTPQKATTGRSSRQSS

B1: OS000 (antibody)
heavy: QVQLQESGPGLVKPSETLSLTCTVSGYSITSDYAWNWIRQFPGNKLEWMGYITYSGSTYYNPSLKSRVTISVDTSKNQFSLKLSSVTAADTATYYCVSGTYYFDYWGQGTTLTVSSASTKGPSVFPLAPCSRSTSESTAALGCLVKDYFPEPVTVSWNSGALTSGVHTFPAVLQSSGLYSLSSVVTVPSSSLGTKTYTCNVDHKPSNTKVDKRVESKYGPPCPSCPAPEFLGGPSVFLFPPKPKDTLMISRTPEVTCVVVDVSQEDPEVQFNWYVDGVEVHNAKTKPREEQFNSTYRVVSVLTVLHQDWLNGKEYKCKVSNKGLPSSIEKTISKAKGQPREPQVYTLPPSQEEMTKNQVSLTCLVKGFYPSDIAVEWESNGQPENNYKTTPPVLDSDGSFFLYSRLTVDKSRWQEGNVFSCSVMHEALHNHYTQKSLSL
light: DIVMTQSPSSLSASVGDRVTITCRASQSVSSDVAWFQQKPGKSPKPLIYYASNRYSGVPSRFSGSGSGTDFTLTISSLQAEDFAVYFCGQDYTSPRTFGGGTKLEIKRTVAAPSVFIFPPSDEQLKSGTASVVCLLNNFYPREAKVQWKVDNALQSGNSQESVTEQDSKDSTYSLSSTLTLSKADYEKHKVYACEVTHQGLSSPVTKSFNRGEC
[1]
  Relative EC50 ADCC V158 (high); target cells FlpIn293-hCD163: 0 relative (EC50 OS001/EC50 construct)
[2]
  Relative EC50 ADCC F158 (low); target cells FlpIn293-hCD163: 0 relative (EC50 OS001/EC50 construct)

B2: OS004 (antibody, human IgG1, kappa)
heavy: QVQLQESGPGLVKPSETLSLTCTVSGYSITSDYAWNWIRQFPGNKLEWMGYITYSGSTYYNPSLKSRVTISVDTSKNQFSLKLSSVTAADTATYYCVSGTYYFDYWGQGTTLTVSSASTKGPSVFPLAPSSKSTSGGTAALGCLVKDYFPEPVTVSWNSGALTSGVHTFPAVLQSSGLYSLSSVVTVPSSSLGTQTYICNVNHKPSNTKVDKKVEPKSCDKTHTCPPCPAPELLGGPSVFLFPPKPKDTLMISRTPEVTCVVVDVSHEDPEVKFNWYVDGVEVHNAKTKPREEQYNYARVVSVLTVLHQDWLNGKEYKCKVSNKALPAPIAATISKAKGQPREPQVYTLPPSRDELTKNQVSLTCLVKGFYPSDIAVEWESNGQPENNYKTTPPVLDSDGSFFLYSKLTVDKSRWQQGNVFSCSVMHEALHNHYTQKSLSLSPGK
light: DIVMTQSPSSLSASVGDRVTITCRASQSVSSDVAWFQQKPGKSPKPLIYYASNRYSGVPSRFSGSGSGTDFTLTISSLQAEDFAVYFCGQDYTSPRTFGGGTKLEIKRTVAAPSVFIFPPSDEQLKSGTASVVCLLNNFYPREAKVQWKVDNALQSGNSQESVTEQDSKDSTYSLSSTLTLSKADYEKHKVYACEVTHQGLSSPVTKSFNRGEC
[1]
  Relative EC50 ADCC V158 (high); target cells FlpIn293-hCD163: 1.6 relative (EC50 OS001/EC50 construct)
[2]
  Relative EC50 ADCC F158 (low); target cells FlpIn293-hCD163: 3.5 relative (EC50 OS001/EC50 construct)

B3: OS016 (antibody, human IgG1, kappa)
heavy: QVQLQESGPGLVKPSETLSLTCTVSGYSITSDYAWNWIRQFPGNKLEWMGYITYSGSTYYNPSLKSRVTISVDTSKNQFSLKLSSVTAADTATYYCVSGTYYFDYWGQGTTLTVSSASTKGPSVFPLAPSSKSTSGGTAALGCLVKDYFPEPVTVSWNSGALTSGVHTFPAVLQSSGLYSLSSVVTVPSSSLGTQTYICNVNHKPSNTKVDKKVEPKSCDKTHTCPPCPAPELLAGPSVFLFPPKPKDTLMISRTPEVTCVVVDVEFEDPEVKFNWYVDGVEVHNAKTKPREEQYNSTYRVVSVLTVLHQDWLNGKEYKCKVTNKALPAPEEKTISKAKGQPREPQVYTLPPSRDELTKNQVSLTCLVKGFYPSDIAVEWESNGQPENNYKTTPPVLDSDGSFFLYSKLTVDKSRWQQGNVFSCSVMHEALHNHYTQKSLSLSPGK
light: DIVMTQSPSSLSASVGDRVTITCRASQSVSSDVAWFQQKPGKSPKPLIYYASNRYSGVPSRFSGSGSGTDFTLTISSLQAEDFAVYFCGQDYTSPRTFGGGTKLEIKRTVAAPSVFIFPPSDEQLKSGTASVVCLLNNFYPREAKVQWKVDNALQSGNSQESVTEQDSKDSTYSLSSTLTLSKADYEKHKVYACEVTHQGLSSPVTKSFNRGEC
[1]
  Relative EC50 ADCC V158 (high); target cells FlpIn293-hCD163: 3.7 relative (EC50 OS001/EC50 construct)
[2]
  Relative EC50 ADCC F158 (low); target cells FlpIn293-hCD163: 4 relative (EC50 OS001/EC50 construct)

B4: OS022 (antibody, human IgG1, kappa)
heavy: not shown
light: DIVMTQSPSSLSASVGDRVTITCRASQSVSSDVAWFQQKPGKSPKPLIYYASNRYSGVPSRFSGSGSGTDFTLTISSLQAEDFAVYFCGQDYTSPRTFGGGTKLEIKRTVAAPSVFIFPPSDEQLKSGTASVVCLLNNFYPREAKVQWKVDNALQSGNSQESVTEQDSKDSTYSLSSTLTLSKADYEKHKVYACEVTHQGLSSPVTKSFNRGEC
modifications: afucosylated glycan (GlymaxX expression)
notes: IgG1, HC D72E, afucosylated; also called IgG1 HC D72E afucosylated
[3]
  Kd: 950 pM
  koff: 0.00049 s⁻¹
  kon: 520000 M⁻¹ s⁻¹

B5: OS003 (antibody, human IgG1, kappa)
heavy: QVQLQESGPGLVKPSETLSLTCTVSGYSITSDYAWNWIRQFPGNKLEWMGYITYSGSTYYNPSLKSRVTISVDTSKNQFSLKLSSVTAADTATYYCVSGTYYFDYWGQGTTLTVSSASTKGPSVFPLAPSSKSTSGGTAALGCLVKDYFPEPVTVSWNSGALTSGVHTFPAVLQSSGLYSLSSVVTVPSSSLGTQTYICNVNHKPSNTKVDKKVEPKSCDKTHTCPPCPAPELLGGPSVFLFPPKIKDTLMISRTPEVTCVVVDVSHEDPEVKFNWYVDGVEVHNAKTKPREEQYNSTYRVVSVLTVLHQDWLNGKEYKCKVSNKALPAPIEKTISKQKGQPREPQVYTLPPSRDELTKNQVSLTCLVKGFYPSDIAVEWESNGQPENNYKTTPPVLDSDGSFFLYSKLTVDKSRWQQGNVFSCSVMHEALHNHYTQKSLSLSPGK
light: DIVMTQSPSSLSASVGDRVTITCRASQSVSSDVAWFQQKPGKSPKPLIYYASNRYSGVPSRFSGSGSGTDFTLTISSLQAEDFAVYFCGQDYTSPRTFGGGTKLEIKRTVAAPSVFIFPPSDEQLKSGTASVVCLLNNFYPREAKVQWKVDNALQSGNSQESVTEQDSKDSTYSLSSTLTLSKADYEKHKVYACEVTHQGLSSPVTKSFNRGEC
[1]
  Relative EC50 ADCC V158 (high); target cells FlpIn293-hCD163: 1.5 relative (EC50 OS001/EC50 construct)
[2]
  Relative EC50 ADCC F158 (low); target cells FlpIn293-hCD163: 1.3 relative (EC50 OS001/EC50 construct)

B6: OS008 (antibody, human IgG1, kappa)
heavy: QVQLQESGPGLVKPSETLSLTCTVSGYSITSDYAWNWIRQFPGNKLEWMGYITYSGSTYYNPSLKSRVTISVDTSKNQFSLKLSSVTAADTATYYCVSGTYYFDYWGQGTTLTVSSASTKGPSVFPLAPSSKSTSGGTAALGCLVKDYFPEPVTVSWNSGALTSGVHTFPAVLQSSGLYSLSSVVTVPSSSLGTQTYICNVNHKPSNTKVDKKVEPKSCDKTHTCPPCPAPELLAGPDVFLFPPKPKDTLMISRTPEVTCVVVDVSHEDPEVKFNWYVDGVEVHNAKTKPREEQYNSTYRVVSVLTVLHQDWLNGKEYKCKVSNKALPLPEEKTISKAKGQPREPQVYTLPPSRDELTKNQVSLTCLVKGFYPSDIAVEWESNGQPENNYKTTPPVLDSDGSFFLYSKLTVDKSRWQQGNVFSCSVMHEALHNHYTQKSLSLSPGK
light: DIVMTQSPSSLSASVGDRVTITCRASQSVSSDVAWFQQKPGKSPKPLIYYASNRYSGVPSRFSGSGSGTDFTLTISSLQAEDFAVYFCGQDYTSPRTFGGGTKLEIKRTVAAPSVFIFPPSDEQLKSGTASVVCLLNNFYPREAKVQWKVDNALQSGNSQESVTEQDSKDSTYSLSSTLTLSKADYEKHKVYACEVTHQGLSSPVTKSFNRGEC
[1]
  Relative EC50 ADCC V158 (high); target cells FlpIn293-hCD163: 4.5 relative (EC50 OS001/EC50 construct)
[2]
  Relative EC50 ADCC F158 (low); target cells FlpIn293-hCD163: 3.2 relative (EC50 OS001/EC50 construct)

B7: OS002 (antibody, human IgG1, kappa)
heavy: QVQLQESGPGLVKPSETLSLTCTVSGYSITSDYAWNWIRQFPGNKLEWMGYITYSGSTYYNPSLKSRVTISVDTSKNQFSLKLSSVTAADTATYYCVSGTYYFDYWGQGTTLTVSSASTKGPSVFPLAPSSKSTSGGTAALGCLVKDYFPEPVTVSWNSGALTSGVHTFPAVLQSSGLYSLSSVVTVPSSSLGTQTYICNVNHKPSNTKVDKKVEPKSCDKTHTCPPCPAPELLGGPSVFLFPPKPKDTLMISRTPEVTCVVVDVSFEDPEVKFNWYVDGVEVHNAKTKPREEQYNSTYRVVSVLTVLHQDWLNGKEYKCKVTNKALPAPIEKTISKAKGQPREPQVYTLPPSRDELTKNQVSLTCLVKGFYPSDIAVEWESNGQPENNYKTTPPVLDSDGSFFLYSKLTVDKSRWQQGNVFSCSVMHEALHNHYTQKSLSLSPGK
light: DIVMTQSPSSLSASVGDRVTITCRASQSVSSDVAWFQQKPGKSPKPLIYYASNRYSGVPSRFSGSGSGTDFTLTISSLQAEDFAVYFCGQDYTSPRTFGGGTKLEIKRTVAAPSVFIFPPSDEQLKSGTASVVCLLNNFYPREAKVQWKVDNALQSGNSQESVTEQDSKDSTYSLSSTLTLSKADYEKHKVYACEVTHQGLSSPVTKSFNRGEC
[1]
  Relative EC50 ADCC V158 (high); target cells FlpIn293-hCD163: 0.9 relative (EC50 OS001/EC50 construct)
[2]
  Relative EC50 ADCC F158 (low); target cells FlpIn293-hCD163: 1.5 relative (EC50 OS001/EC50 construct)

B8: OS007 (antibody, human IgG1, kappa)
heavy: QVQLQESGPGLVKPSETLSLTCTVSGYSITSDYAWNWIRQFPGNKLEWMGYITYSGSTYYNPSLKSRVTISVDTSKNQFSLKLSSVTAADTATYYCVSGTYYFDYWGQGTTLTVSSASTKGPSVFPLAPSSKSTSGGTAALGCLVKDYFPEPVTVSWNSGALTSGVHTFPAVLQSSGLYSLSSVVTVPSSSLGTQTYICNVNHKPSNTKVDKKVEPKSCDKTHTCPPCPAPELLAGPDVFLFPPKPKDTLMISRTPEVTCVVVDVSHEDPEVKFNWYVDGVEVHNAKTKPREEQYNSTYRVVSVLTVLHQDWLNGKEYKCKVSNKALPAPEEKTISKAKGQPREPQVYTLPPSRDELTKNQVSLTCLVKGFYPSDIAVEWESNGQPENNYKTTPPVLDSDGSFFLYSKLTVDKSRWQQGNVFSCSVMHEALHNHYTQKSLSLSPGK
light: DIVMTQSPSSLSASVGDRVTITCRASQSVSSDVAWFQQKPGKSPKPLIYYASNRYSGVPSRFSGSGSGTDFTLTISSLQAEDFAVYFCGQDYTSPRTFGGGTKLEIKRTVAAPSVFIFPPSDEQLKSGTASVVCLLNNFYPREAKVQWKVDNALQSGNSQESVTEQDSKDSTYSLSSTLTLSKADYEKHKVYACEVTHQGLSSPVTKSFNRGEC
[1]
  Relative EC50 ADCC V158 (high); target cells FlpIn293-hCD163: 4 relative (EC50 OS001/EC50 construct)
[2]
  Relative EC50 ADCC F158 (low); target cells FlpIn293-hCD163: 5.6 relative (EC50 OS001/EC50 construct)

B9: OS010 (antibody, human IgG1, kappa)
heavy: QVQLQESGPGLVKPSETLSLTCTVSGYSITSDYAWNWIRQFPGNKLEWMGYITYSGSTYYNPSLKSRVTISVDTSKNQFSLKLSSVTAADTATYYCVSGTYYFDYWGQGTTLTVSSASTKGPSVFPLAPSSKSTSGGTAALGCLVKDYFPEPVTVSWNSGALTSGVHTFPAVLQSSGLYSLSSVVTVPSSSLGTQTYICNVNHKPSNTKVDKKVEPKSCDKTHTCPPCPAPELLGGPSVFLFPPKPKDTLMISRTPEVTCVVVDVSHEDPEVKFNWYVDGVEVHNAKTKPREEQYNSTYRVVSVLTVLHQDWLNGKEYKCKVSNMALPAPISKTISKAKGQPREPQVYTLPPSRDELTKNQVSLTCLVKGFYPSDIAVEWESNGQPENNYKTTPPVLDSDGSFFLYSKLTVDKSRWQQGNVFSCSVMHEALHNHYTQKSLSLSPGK
light: DIVMTQSPSSLSASVGDRVTITCRASQSVSSDVAWFQQKPGKSPKPLIYYASNRYSGVPSRFSGSGSGTDFTLTISSLQAEDFAVYFCGQDYTSPRTFGGGTKLEIKRTVAAPSVFIFPPSDEQLKSGTASVVCLLNNFYPREAKVQWKVDNALQSGNSQESVTEQDSKDSTYSLSSTLTLSKADYEKHKVYACEVTHQGLSSPVTKSFNRGEC
[1]
  Relative EC50 ADCC V158 (high); target cells FlpIn293-hCD163: 1.4 relative (EC50 OS001/EC50 construct)
[2]
  Relative EC50 ADCC F158 (low); target cells FlpIn293-hCD163: 1.2 relative (EC50 OS001/EC50 construct)

B10: OS018 (antibody, human IgG1, kappa)
heavy: not shown
light: DIVMTQSPSSLSASVGDRVTITCRASQSVSSDVAWFQQKPGKSPKPLIYYASNRYSGVPSRFSGSGSGTDFTLTISSLQAEDFAVYFCGQDYTSPRTFGGGTKLEIKRTVAAPSVFIFPPSDEQLKSGTASVVCLLNNFYPREAKVQWKVDNALQSGNSQESVTEQDSKDSTYSLSSTLTLSKADYEKHKVYACEVTHQGLSSPVTKSFNRGEC
notes: also called IgG1 HC D72E
[4]
  Kd: 510 pM
  koff: 0.00033 s⁻¹
  kon: 650000 M⁻¹ s⁻¹

B11: OS019 (antibody, human IgG1, kappa)
heavy: not shown
light: DIVMTQSPSSLSASVGDRVTITCRASQSVSSDVAWFQQKPGKSPKPLIYYASNRYSGVPSRFSGSGSGTDFTLTISSLQAEDFAVYFCQQDYTSPRTFGGGTKLEIKRTVAAPSVFIFPPSDEQLKSGTASVVCLLNNFYPREAKVQWKVDNALQSGNSQESVTEQDSKDSTYSLSSTLTLSKADYEKHKVYACEVTHQGLSSPVTKSFNRGEC
notes: also called IgG1 LC G89Q
[4]
  Kd: 410 pM
  koff: 0.00021 s⁻¹
  kon: 520000 M⁻¹ s⁻¹

B12: OS020 (antibody, human IgG1, kappa)
heavy: not shown
light: DIVMTQSPSSLSASVGDRVTITCRASQSVSSDVAWFQQKPGKSPKPLIYYASNRYSGVPSRFSGSGSGTDFTLTISSLQAEDFAVYFCQQDYTSPRTFGGGTKLEIKRTVAAPSVFIFPPSDEQLKSGTASVVCLLNNFYPREAKVQWKVDNALQSGNSQESVTEQDSKDSTYSLSSTLTLSKADYEKHKVYACEVTHQGLSSPVTKSFNRGEC
notes: IgG1, HC D72E and LC G89Q, wild type glycosylation; also called IgG1 HC D72E LC G89Q
[4]
  Kd: 470 pM
  koff: 0.00022 s⁻¹
  kon: 470000 M⁻¹ s⁻¹

B13: OS023 (antibody, human IgG1, kappa)
heavy: not shown
light: DIVMTQSPSSLSASVGDRVTITCRASQSVSSDVAWFQQKPGKSPKPLIYYASNRYSGVPSRFSGSGSGTDFTLTISSLQAEDFAVYFCQQDYTSPRTFGGGTKLEIKRTVAAPSVFIFPPSDEQLKSGTASVVCLLNNFYPREAKVQWKVDNALQSGNSQESVTEQDSKDSTYSLSSTLTLSKADYEKHKVYACEVTHQGLSSPVTKSFNRGEC
modifications: afucosylated glycan (GlymaxX expression)
notes: IgG1, HC D72E and LC G89Q, afucosylated; also called IgG1 HC D72E LC G89Q afucosylated
[3]
  Kd: 800 pM
  koff: 0.00037 s⁻¹
  kon: 460000 M⁻¹ s⁻¹
